Measurements from patent US20210380703A1 (RIGEL PHARMACEUTICALS, published 2021).
Numbering of substitutions follows the chain as printed.

B1: 376_B06 (antibody, V domains shown)
VH: EVQLLESGGGLVQPGGSLRLSCAASGFTFSSYSMNWVRQAPGKGLEWVAGINYNSGYKGYADSVKGRFTISRDNSKNTLYLQMNSLRAEDTAVYYCARSATWHDTHLDYWGQGTLVTVSS
VL: DIQMTQSPSSLSASVGDRVTITCRASQSILTYLNWYQQKPGKAPKLLIYAATSRASGVPSRFSGSGSGTDFTLTISSLQPEDFATYYCQQSYDLPLTFGGGTKVEIK
B2: 375_A06 (antibody, V domains shown)
VH: B1 VH
VL: B1 VL with L33V, T52S, R54L, A55Q, D93S, L94T
B3: 365_F07 (antibody, V domains shown)
VH: B1 VH with A49S, G50N, S55G, G59S, H106A
VL: B1 VL with T31S, L33V, L47V
B4: 374_A11 (antibody, V domains shown)
VH: B1 VH with S31D, G50N
VL: B1 VL with T31S, L33V, L47V, D93S, L94S
B5: 374_C05 (antibody, V domains shown)
VH: B1 VH with S30D, G59S
VL: B1 VL with L30I, T31R, L47V, L94N
B6: 373_B08 (antibody, V domains shown)
VH: B1 VH with S30D, G50N
VL: B1 VL with L47V, R54L, D93E, L94N
B7: 372_D04 (antibody, V domains shown)
VH: B1 VH with G50N, K58T
VL: B1 VL with R54L, A55H
B8: 376_B01 (antibody, V domains shown)
VH: B1 VH with S30D, S55G, K58T, G59S
VL: B1 VL with L33V, L47V, D93N
B9: 373_E06 (antibody, V domains shown)
VH: B1 VH with S30D, G59S
VL: B1 VL with T31R, R54L, A55H, L94N
B10: 376_A06 (antibody, V domains shown)
VH: B1 VH with S30D, A49S, K58T, G59S, H106A
VL: B1 VL with T31S, L47V, A50Y, A51V, T52S, S53N, L94N
B11: 367_A01 (antibody, V domains shown)
VH: B1 VH with G50S, S55G, K58T
VL: B1 VL
B12: 375_C12 (antibody, V domains shown)
VH: B1 VH with G50N, S55G, K58T
VL: B1 VL
B13: 366_A05 (antibody, V domains shown)
VH: B1 VH with K58T
VL: B1 VL with L33V, L47V, R54L, D93N, L94T
B14: 373_G05 (antibody, V domains shown)
VH: B1 VH with S55G, K58T, G59S
VL: B1 VL with T31S, R54L, D93E
B15: 367_G07 (antibody, V domains shown)
VH: B1 VH with S30D, G50N, S55G, K58T
VL: B1 VL with L33V, L94N
B16: 369_A10 (antibody, V domains shown)
VH: B1 VH with S30D, K58T
VL: B1 VL with T31S, D93E
B17: 369_G07 (antibody, V domains shown)
VH: B1 VH with S55G, K58T, G59S
VL: B1 VL with L33V, L47V, L94N
B18: 373_B11 (antibody, V domains shown)
VH: B1 VH with G50N
VL: B1 VL with T31S, L94N
B19: 374_C11 (antibody, V domains shown)
VH: B1 VH
VL: B1 VL with D93E, L94S
B20: 370_E07 (antibody, V domains shown)
VH: B1 VH with S30D, G50N, S55G, K58T
VL: B1 VL with L94N
B21: 373_E02 (antibody, V domains shown)
VH: B1 VH with S30D, S33G, N35H, A49S, S55G
VL: not shown
B22: 375_G07 (antibody, V domains shown)
VH: B1 VH with S30D, K58T, G59S
VL: B1 VL with T31S, L47V, R54L
B23: 365_D05 (antibody, V domains shown)
VH: B1 VH with S30D, S55G, K58T, G59S
VL: B1 VL with L33V, D93N, L94S

target: Human ACVR2A (on cells) (human, UniProt P27037 20-513); assay: cell-based or functional assay
Sequence (P27037 20-513): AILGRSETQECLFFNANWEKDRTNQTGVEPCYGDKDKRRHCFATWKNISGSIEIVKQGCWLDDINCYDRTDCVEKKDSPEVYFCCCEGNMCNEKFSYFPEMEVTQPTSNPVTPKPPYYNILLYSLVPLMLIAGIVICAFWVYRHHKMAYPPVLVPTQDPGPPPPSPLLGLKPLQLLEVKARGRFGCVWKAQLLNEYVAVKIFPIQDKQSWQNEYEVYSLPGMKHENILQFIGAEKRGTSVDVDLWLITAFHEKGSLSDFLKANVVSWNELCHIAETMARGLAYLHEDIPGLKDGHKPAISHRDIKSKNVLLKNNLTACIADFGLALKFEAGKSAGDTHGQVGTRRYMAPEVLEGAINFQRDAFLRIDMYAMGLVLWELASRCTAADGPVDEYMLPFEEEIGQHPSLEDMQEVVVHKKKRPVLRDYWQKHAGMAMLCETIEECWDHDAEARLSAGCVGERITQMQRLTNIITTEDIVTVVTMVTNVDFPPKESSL

Row | Binder | Phospho-SMAD3 Human Skeletal Muscle GDF8 (AlphaLisa, primary human myotubes)
1 | B1 | 0.0042
2 | B2 | 0.0318
3 | B3 | 0.011
4 | B4 | 0.0086
5 | B5 | 0.0124
6 | B6 | 0.0102
7 | B7 | 0.0114
8 | B8 | 0.0086
9 | B9 | 0.0005
10 | B10 | 0.0043
11 | B11 | 0.0065
12 | B12 | 0.0063
13 | B13 | 0.0244
14 | B14 | 0.0059
15 | B15 | 0.0068
16 | B16 | 0.0076
17 | B17 | 0.012
18 | B18 | 0.0008
19 | B19 | 0.0266
20 | B20 | 0.0046
21 | B21 | 0.0049
22 | B22 | 0.0112
23 | B23 | 0.0209
